# T1: human GITR on naïve CD4+ T cells (human, UniProt Q9Y5U5 26-241)
# T1 sequence: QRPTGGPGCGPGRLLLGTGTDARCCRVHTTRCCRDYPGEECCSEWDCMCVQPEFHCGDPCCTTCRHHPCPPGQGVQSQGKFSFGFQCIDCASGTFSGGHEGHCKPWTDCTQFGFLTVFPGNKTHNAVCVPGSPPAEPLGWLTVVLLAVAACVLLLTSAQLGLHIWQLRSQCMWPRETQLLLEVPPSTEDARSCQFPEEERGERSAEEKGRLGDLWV
# T2: hGITR-hIgG (human, UniProt Q9Y5U5 26-161, limits assumed)
# T2 construct: not shown: human IgG part of the fusion
# T2 sequence: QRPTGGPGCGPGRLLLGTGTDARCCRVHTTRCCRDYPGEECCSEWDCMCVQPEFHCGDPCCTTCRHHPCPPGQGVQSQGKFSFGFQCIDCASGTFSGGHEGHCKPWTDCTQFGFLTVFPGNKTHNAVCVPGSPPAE
# B1: 6H6 (antibody, V domains shown)
# VH: QVQLQQSGAELMKPGASVKISCKATGYTFSRYWIEWIKQRPGHGLEWIGEILPGSGSSNYNEKFKDKATFTADTSSNTAYMQFSSLTSEDSAVYYCARKVYYYAMDFWGQGTSVTVSS
# VL: QIVLTQSPAIMSVSLGERVTVTCTASSSVSSSYFHWYQQKPGSSPKLWIYSTSNLASGVPARFSGSGSGTSYSLTISTMEAEDAATYYCHQYHRSPRTFGGGTKLEIKR
# notes: Parental rodent anti-human GITR monoclonal antibody from a hybridoma; kappa VL; also called 6H6.C3; hybridoma PTA-9892
# Assays:
# [1] = biological target: T1, human GITR on naïve CD4+ T cells; assay: cell-based or functional assay
# hGITR-hIgG [2] = biological target: T2, hGITR-hIgG; assay: BIAcore SPR; hGITR-hIgG capture antigen, mAb analyte; apparent Kd
# Protocol: (§1) BIAcore determinations are performed essentially as described at Example 4 of co-pending, commonly assigned U.S. patent application Ser. No. 11/511,635 (filed 29 Aug. 2006). Briefly, binding partners are immobilized on a BIAcore CM5 sensor chip using standard amine-coupling procedure. Kinetic constants for the various interactions are determined using BIAevaluation software 3.1. The Kd is determined using the calculated dissociation and association rate constants.
# hGITR-hIgG [3] = biological target: T2, hGITR-hIgG; assay: BIAcore SPR; hGITR-hIgG capture antigen, mAb analyte
# Protocol: as §1
binder,measurement,setting,value
B1,"proliferation of naïve CD4+ T cells, mean, at 0.04 ng/mL Ab",[1],38500
same,"proliferation of naïve CD4+ T cells, mean, at 0.15 ng/mL Ab",[1],33400
same,"proliferation of naïve CD4+ T cells, mean, at 0.61 ng/mL Ab",[1],30200
same,"proliferation of naïve CD4+ T cells, mean, at 2.4 ng/mL Ab",[1],35600
same,"proliferation of naïve CD4+ T cells, mean, at 9.8 ng/mL Ab",[1],60000
same,"proliferation of naïve CD4+ T cells, mean, at 39.1 ng/mL Ab",[1],104000
same,"proliferation of naïve CD4+ T cells, mean, at 156 ng/mL Ab",[1],123000
same,"proliferation of naïve CD4+ T cells, mean, at 625 ng/mL Ab",[1],120000
same,"proliferation of naïve CD4+ T cells, mean, at 2500 ng/mL Ab",[1],107000
same,"proliferation of naïve CD4+ T cells, mean, at 10000 ng/mL Ab",[1],91900
same,Kd,hGITR-hIgG [2],1.51 nM
same,koff,hGITR-hIgG [3],0.000919 s⁻¹
same,kon,hGITR-hIgG [3],610000 M⁻¹ s⁻¹
